Values of other authors as cited in paper PMC12990809.

Tests used:
Assay in all cases: pulldown
Settings in all cases: 20 nM protein, 1.5 uM RNA pool; 20 mM HEPES pH 7.8, 70 mM KCl, 10 mM NaCl, 10% glycerol, 2 mM DTT, 0.1 ug/uL BSA; 30 min, 4 C (protocol of this paper; not …); cited from earlier work
[1] = target: T1, sf3b4 (Danio rerio) (UniProt A0ACM8Q308)
T1 sequence: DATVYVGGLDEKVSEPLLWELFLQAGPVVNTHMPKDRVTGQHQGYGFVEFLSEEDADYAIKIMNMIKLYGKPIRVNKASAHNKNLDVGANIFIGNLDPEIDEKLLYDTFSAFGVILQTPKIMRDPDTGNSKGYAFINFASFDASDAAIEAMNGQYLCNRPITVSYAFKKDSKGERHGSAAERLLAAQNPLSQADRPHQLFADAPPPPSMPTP

[2] = target: T2, TVAG_302220 (Trichomonas vaginalis) (UniProt A2EGP7)
T2 sequence: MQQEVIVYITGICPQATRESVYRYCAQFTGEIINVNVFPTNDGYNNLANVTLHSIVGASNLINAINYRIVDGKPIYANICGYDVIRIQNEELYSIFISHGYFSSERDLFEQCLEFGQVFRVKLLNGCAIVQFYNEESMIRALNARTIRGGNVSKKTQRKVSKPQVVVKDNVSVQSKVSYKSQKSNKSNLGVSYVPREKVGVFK

[3] = target: T3, Tb927.7.5380 (Trypanosoma brucei) (UniProt Q582F3)
T3 sequence: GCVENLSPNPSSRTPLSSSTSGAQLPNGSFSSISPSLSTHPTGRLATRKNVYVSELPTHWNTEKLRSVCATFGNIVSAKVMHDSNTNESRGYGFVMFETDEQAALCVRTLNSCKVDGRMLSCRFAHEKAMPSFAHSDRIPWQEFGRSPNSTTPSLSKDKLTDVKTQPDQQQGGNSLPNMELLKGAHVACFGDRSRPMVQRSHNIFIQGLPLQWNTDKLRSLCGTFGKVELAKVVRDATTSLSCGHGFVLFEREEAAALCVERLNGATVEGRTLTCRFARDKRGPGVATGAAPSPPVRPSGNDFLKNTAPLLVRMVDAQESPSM

[4] = target: Pcbp3 (Mus musculus) (UniProt P57722)
Chain of Pcbp3 (Mus musculus) (P57722 33-371): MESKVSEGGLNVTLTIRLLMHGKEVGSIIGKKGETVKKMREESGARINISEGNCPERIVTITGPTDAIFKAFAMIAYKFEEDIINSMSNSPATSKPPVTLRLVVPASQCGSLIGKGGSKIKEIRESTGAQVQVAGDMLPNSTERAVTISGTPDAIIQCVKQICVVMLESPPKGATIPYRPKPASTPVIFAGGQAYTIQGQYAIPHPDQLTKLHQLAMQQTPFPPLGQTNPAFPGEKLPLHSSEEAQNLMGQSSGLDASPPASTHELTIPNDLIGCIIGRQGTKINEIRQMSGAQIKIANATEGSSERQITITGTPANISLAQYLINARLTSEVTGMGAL

[5] = target: T4, PFI1435w (Plasmodium falciparum) (UniProt C0H570)
T4 sequence: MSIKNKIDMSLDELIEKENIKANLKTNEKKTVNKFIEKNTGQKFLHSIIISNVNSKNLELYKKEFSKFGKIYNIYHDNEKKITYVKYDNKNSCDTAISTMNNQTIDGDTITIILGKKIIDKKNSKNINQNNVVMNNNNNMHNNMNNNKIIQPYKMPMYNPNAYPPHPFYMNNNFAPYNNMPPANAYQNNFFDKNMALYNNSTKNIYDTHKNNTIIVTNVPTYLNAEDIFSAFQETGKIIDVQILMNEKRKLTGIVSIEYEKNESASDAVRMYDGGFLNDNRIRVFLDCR

[6] = target: T5, LmjF.32.0750 (Leishmania major) (UniProt Q4Q5K7)
T5 sequence: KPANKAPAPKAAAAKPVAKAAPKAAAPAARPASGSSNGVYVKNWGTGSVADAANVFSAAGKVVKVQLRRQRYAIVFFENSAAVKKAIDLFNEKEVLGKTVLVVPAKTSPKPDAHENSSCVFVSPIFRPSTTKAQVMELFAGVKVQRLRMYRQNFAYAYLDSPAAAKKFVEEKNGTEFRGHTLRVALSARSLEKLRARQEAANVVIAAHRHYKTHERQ

[7] = target: T6, NCU08034 (Neurospora crassa) (UniProt Q7SAK7)
T6 sequence: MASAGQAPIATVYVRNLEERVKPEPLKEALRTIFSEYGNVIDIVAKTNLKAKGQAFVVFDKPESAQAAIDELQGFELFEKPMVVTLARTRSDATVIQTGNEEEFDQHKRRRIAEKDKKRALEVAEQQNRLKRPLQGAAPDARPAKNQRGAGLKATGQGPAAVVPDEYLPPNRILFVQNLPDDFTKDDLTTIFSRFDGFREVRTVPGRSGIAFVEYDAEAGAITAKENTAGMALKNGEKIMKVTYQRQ

[8] = target: T7, PF13_0315 (Plasmodium falciparum) (UniProt Q8IDB7)
T7 sequence: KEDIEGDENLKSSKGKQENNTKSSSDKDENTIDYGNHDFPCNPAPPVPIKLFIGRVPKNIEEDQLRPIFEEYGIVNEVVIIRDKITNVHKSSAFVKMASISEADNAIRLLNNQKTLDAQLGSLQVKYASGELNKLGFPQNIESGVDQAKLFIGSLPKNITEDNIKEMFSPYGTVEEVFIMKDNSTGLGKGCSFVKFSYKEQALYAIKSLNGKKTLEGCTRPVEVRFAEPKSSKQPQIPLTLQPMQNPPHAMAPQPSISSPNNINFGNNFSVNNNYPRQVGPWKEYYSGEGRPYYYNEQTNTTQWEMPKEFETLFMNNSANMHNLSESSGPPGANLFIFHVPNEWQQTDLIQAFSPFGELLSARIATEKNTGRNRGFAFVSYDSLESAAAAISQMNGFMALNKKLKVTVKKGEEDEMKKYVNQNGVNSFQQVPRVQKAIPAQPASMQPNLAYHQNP

[9] = target: T8, RO3G_00049 (Rhizopus oryzae) (UniProt I1BGL5)
T8 sequence: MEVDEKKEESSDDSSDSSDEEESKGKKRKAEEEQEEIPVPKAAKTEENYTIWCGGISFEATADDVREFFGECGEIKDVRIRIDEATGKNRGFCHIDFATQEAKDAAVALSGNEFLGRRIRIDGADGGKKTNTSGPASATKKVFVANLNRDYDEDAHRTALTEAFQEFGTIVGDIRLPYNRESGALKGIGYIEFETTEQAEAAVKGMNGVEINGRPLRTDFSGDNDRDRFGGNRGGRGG

[10] = target: T9, Thaps1841 (Thalassiosira pseudonana) (UniProt B8BS34)
T9 sequence: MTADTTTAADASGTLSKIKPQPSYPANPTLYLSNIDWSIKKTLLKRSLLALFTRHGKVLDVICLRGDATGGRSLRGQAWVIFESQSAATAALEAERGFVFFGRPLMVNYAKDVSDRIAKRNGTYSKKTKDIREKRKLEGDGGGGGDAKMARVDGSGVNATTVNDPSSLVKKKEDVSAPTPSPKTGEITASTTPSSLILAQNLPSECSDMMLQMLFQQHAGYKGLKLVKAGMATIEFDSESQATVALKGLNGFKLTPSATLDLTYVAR

[11] = target: T10, gw1.219.6.1 (Physcomitrella patens) (UniProt A0A2K1KNA4)
T10 sequence: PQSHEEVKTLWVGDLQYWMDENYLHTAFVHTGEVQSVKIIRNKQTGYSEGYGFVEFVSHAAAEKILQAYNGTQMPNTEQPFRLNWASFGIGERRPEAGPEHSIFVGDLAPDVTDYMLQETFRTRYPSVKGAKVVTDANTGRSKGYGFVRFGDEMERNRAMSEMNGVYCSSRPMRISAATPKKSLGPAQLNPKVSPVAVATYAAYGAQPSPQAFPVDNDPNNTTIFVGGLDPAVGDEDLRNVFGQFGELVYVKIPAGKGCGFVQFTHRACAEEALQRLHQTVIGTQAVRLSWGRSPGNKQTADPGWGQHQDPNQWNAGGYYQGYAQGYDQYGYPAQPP

[12] = target: T11, PFI1695c (Plasmodium falciparum) (UniProt Q8I2G9)
T11 sequence: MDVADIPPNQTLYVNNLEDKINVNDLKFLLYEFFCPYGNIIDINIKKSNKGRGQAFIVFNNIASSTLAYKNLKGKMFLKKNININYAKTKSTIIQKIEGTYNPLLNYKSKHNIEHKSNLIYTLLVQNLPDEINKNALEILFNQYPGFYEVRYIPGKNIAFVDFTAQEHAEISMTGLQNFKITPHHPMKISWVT

[13] = target: T12, e_gw1.81.40.1 (Physcomitrella patens) (UniProt A0A2K1J988)
T12 sequence: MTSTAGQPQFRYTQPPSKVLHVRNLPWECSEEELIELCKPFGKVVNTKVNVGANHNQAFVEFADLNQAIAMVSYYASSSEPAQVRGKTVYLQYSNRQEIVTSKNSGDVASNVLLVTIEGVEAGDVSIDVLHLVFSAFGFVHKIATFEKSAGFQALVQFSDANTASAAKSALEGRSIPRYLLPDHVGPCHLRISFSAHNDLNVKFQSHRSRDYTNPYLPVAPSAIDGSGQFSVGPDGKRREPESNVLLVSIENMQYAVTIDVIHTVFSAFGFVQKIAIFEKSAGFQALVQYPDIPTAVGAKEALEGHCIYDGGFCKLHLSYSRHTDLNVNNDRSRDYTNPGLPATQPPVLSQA

[14] = target: T13, Tb927.3.3930 N185S (Trypanosoma brucei) (UniProt Q57WC9)
T13 sequence: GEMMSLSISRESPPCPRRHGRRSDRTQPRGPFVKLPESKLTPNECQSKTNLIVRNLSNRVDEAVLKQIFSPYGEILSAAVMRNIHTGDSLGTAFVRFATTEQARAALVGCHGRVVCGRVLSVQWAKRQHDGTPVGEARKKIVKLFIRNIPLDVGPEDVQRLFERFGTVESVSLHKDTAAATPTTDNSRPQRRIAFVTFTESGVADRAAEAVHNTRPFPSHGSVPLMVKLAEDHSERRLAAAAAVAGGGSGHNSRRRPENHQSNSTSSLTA

[15] = target: T14, Tb09.211.0560 (Trypanosoma brucei) (UniProt Q38EA2)
T14 sequence: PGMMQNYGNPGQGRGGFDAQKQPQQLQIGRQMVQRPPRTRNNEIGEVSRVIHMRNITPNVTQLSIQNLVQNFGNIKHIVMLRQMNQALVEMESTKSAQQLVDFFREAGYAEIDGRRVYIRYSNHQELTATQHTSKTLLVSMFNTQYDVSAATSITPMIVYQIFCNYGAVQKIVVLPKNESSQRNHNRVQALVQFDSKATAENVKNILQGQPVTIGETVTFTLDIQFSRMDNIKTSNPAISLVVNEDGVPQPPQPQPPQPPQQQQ

[16] = target: T15, Tb927.8.6650 (Trypanosoma brucei) (UniProt Q57TU8)
T15 sequence: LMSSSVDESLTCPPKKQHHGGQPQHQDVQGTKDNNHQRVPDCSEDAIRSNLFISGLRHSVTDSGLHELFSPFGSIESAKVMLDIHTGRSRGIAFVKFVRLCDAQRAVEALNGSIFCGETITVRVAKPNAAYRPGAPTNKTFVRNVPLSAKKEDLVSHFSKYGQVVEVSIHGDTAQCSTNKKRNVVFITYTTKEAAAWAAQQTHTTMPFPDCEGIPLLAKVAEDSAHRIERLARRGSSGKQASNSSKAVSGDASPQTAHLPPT

[17] = target: T16, LmjF.18.0180 (Leishmania major) (UniProt Q4QE24)
T16 sequence: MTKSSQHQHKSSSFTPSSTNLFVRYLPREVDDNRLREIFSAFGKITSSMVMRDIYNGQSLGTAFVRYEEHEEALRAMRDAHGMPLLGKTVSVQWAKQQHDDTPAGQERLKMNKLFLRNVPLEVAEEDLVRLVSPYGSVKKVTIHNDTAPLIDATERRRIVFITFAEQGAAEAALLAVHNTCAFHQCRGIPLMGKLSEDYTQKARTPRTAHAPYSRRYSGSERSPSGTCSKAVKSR

[18] = target: T17, gw1.84.45.1 (Physcomitrella patens) (UniProt A0A2K1L0S1)
T17 sequence: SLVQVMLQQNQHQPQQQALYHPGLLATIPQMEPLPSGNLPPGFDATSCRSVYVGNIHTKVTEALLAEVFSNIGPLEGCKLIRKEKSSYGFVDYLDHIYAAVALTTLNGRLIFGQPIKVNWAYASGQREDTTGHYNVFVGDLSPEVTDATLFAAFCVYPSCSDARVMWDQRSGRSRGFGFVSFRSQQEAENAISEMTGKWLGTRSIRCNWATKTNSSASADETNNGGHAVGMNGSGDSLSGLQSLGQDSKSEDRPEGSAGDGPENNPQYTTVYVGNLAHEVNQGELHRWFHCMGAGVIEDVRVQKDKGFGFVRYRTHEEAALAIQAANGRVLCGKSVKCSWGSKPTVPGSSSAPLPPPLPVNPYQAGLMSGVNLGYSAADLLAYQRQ

CAAAAG [RNAcompete motif RNCMPT00224]
binding signal (z-score (mean of top ten 7-mers)) [1]: 28.4

CAAUAA [RNAcompete motif RNCMPT00226]
binding signal (z-score (mean of top ten 7-mers)) [2]: 12.9

UUAUU [RNAcompete motif RNCMPT00218]
binding signal (z-score (mean of top ten 7-mers)) [3]: 7.15

CUUUCC [RNAcompete motif RNCMPT00215]
binding signal (z-score (mean of top ten 7-mers)) [4]: 6.23

UUUUUU [RNAcompete motif RNCMPT00202]
binding signal (z-score (mean of top ten 7-mers)) [5]: 6.28

UACACG [RNAcompete motif RNCMPT00223]
binding signal (z-score (mean of top ten 7-mers)) [6]: 10.4

AGCACA [RNAcompete motif RNCMPT00209]
binding signal (z-score (mean of top ten 7-mers)) [7]: 11.1

UUACAU [RNAcompete motif RNCMPT00200]
binding signal (z-score (mean of top ten 7-mers)) [8]: 7.45

AGGGGAA [RNAcompete motif RNCMPT00205]
binding signal (z-score (mean of top ten 7-mers)) [9]: 9.5

ACACGC [RNAcompete motif RNCMPT00225]
binding signal (z-score (mean of top ten 7-mers)) [10]: 6.33

UGUUUUU [RNAcompete motif RNCMPT00229]
binding signal (z-score (mean of top ten 7-mers)) [11]: 6.94

CCUGCAC [RNAcompete motif RNCMPT00203]
binding signal (z-score (mean of top ten 7-mers)) [12]: 9.07

AACCUUU [RNAcompete motif RNCMPT00206]
binding signal (z-score (mean of top ten 7-mers)) [13]: 6.39

CAUUGU [RNAcompete motif RNCMPT00216]
binding signal (z-score (mean of top ten 7-mers)) [14]: 18.7

CUUUCU [RNAcompete motif RNCMPT00220]
binding signal (z-score (mean of top ten 7-mers)) [15]: 6.05

UAUACU [RNAcompete motif RNCMPT00219]
binding signal (z-score (mean of top ten 7-mers)) [16]: 15.8

CAUUUU [RNAcompete motif RNCMPT00212]
binding signal (z-score (mean of top ten 7-mers)) [17]: 30.2

UUUUUU [RNAcompete motif RNCMPT00228]
binding signal (z-score (mean of top ten 7-mers)) [18]: 12.9
